Series [1] concerns the target T1, YaxA (Y. enterocolitica, UniProt A1JM51 1-411).
T1 construct: YaxA of Yersinia enterocolitica serovar 8, biovar 1 (ATCC 23715), ORF YE1984; 45.9 kDa; native mass spectrometry verified that the full-length protein was purified; the ORF was amplified from cDNA of ATCC 23715; The pore model 6EL1 holds YaxA residues 45-153 and 169-410; also called YaxA^WT; WT YaxA; not shown: His6, N-terminal, cleaved; SUMO, N-terminal, cleaved
T1 sequence: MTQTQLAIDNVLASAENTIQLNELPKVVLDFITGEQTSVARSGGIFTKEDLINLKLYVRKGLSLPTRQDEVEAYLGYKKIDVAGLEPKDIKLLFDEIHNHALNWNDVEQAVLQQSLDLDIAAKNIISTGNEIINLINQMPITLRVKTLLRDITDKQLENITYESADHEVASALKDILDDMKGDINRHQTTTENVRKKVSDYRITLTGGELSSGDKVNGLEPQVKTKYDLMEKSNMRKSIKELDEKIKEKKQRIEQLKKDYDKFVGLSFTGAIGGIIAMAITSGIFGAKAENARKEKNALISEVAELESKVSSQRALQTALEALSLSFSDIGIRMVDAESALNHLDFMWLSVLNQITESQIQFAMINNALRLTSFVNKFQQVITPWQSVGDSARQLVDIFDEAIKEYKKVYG
Description: SEC; purified YaxA and YaxB mixed in solution; ratio of the two in the complex from SDS-PAGE band intensities. The conditions noted are these: both partners purified. (Size exclusion chromatography separates by hydrodynamic size, large species first.)

Series [2] deals with the molecule itself. Kind of series: cryo-EM structure; 1 mg each of YaxA and YaxB mixed at room temperature, Cymal-6 treated, Superose 6, exchanged into amphipol A8-35; 2 mg/mL; C10 symmetry imposed, 6.1 Å; a C9 class at 7.6 Å.
Series [3] concerns the target T1, YaxA. Kind of series: negative-stain EM; YaxA, then YaxB (1.5-fold molar excess) on human erythrocyte ghosts; pores extracted with 1.5% Cymal-6, purified on Superose 6 and a 10-40% sucrose gradient; 0.1 mg/mL on grids, uranyl formate stain. The conditions noted are these: both partners purified.

Results on one molecule are retold here after paper PMC5935710, “Structure and mechanism of the two-component α-helical pore-forming toxin YaxAB” (Nature Communications, 2018).

Usually stoichiometry N stands for the number of molecules, sites or subunits per partner or assembly.

B1: YaxB (natural protein)
chain: MAEISTFPHSGLSYPDINFKIFSQGVKNISHLAQFKTTGVEVLQEKALRVSLYSQRLDVIVRESLSSLQVKLENTLALTYFTTLEEIDEALISQDIDEESKSEMRKERINIIKNLSNDITQLKQLFIEKTELLDKSSSDLHNVVIIEGTDKVLQAEQLRQKQLTEDIATKELERKEIEKKRDKIIEALDVIREHNLVDAFKDLIPTGENLSELDLAKPEIELLKQSLEITKKLLGQFSEGLKYIDLTDARKKLDNQIDTASTRLTELNRQLEQSEKLIAGVNAVIKIDQEKSAVVVEAEKLSRAWHIFIHEITALQGTSLNEVELSKPLIKQQIYLESLIKQLI
notes: YaxB of Yersinia enterocolitica serovar 8, biovar 1 (ATCC 23715), ORF YE1985; 39.3 kDa; the ORF was cloned behind His6 and a TEV site; the ORF was amplified from cDNA of ATCC 23715; The pore model 6EL1 holds YaxB residues 12-343; also called YE1985; not shown: His6, N-terminal, cleaved
As to B1, the “stoichiometry N” value in the series with YaxA [1] was 1 YaxA:YaxB; in series [2], 10. Besides, in the series with YaxA [3], the “radial spokes (YaxA–YaxB dimers) per complex” value amounted to 11 fold symmetry.
